Data from patent US20250243261A1 (CZ BIOHUB SF, published 2025).
Where two headings read alike, the source gives them in different places.

Assays:
[1] = target: T1, Ebola GP ectodomain (Mayinga, Zaire, 1976) with the mucin-like domain deleted (Zaire ebolavirus (Mayinga, 1976), UniProt Q05320 33-650)
[2] = target: T2, full-length Ebola GP on pseudotyped lentivirus (Zaire ebolavirus, UniProt Q05320 33-676); assay: cell-based or functional assay
T2 sequence: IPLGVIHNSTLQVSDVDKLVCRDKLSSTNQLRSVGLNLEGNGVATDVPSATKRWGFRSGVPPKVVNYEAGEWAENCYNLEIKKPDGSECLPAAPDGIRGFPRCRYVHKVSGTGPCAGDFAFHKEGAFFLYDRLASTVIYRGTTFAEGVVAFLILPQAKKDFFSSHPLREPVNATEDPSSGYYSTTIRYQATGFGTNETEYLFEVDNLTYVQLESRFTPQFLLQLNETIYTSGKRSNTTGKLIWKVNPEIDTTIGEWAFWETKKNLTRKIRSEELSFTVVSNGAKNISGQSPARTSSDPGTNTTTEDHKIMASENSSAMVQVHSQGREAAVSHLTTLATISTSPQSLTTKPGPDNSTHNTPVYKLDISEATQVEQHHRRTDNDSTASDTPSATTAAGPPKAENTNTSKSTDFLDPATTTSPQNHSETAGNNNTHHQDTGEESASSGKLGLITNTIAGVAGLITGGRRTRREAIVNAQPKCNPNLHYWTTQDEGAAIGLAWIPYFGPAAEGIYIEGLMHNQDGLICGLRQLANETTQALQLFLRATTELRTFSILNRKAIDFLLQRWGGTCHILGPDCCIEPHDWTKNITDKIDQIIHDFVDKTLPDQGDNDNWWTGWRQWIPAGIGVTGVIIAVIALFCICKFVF

[3] = target: T1, Ebola GP ectodomain (Mayinga, Zaire, …); remark: listed apart in the source
[4] = target: T1, Ebola GP ectodomain (Mayinga, Zaire, …); remark: listed apart in the source
[5] = target: T1, Ebola GP ectodomain (Mayinga, Zaire, …); assay: BLI, Fab
[6] = target: T1, Ebola GP ectodomain (Mayinga, Zaire, …); assay: BLI, IgG
[7] = target: T1, Ebola GP ectodomain (Mayinga, Zaire, …); assay: BLI, Fab; remark: listed apart in the source

B1: mAb114 VH D42G-A68T-S79Y / VL V43A IgG (antibody, V domains shown)
VH: EVQLVESGGGLIQPGGSLRLSCAASGFALRMYDMHWVRQTIGKRLEWVSAVGPSGDTYYADSVKGRFTVSRENAKNSLYLQMNSLTAGDTAIYYCVRSDRGVAGLFDSWGQGILVTVSS
VL: DIQMTQSPSSLSASVGDRITITCRASQAFDNYVAWYQQRPGKAPKLLISAASALHAGVPSRFSGSGSGTHFTLTISSLQPEDVATYYCQNYNSAPLTFGGGTKVEIK
B1 was tested, and the Kd [1] was under 0.001 nM and the “Ebola GP pseudotyped lentivirus IC50” value [2] was 0.96 nM.

B2: mAb114 VH D42G-A68T-S79Y / VL V43A Fab (Fab, V domains shown)
VH: EVQLVESGGGLIQPGGSLRLSCAASGFALRMYDMHWVRQTIGKRLEWVSAVGPSGDTYYADSVKGRFTVSRENAKNSLYLQMNSLTAGDTAIYYCVRSDRGVAGLFDSWGQGILVTVSS
VL: DIQMTQSPSSLSASVGDRITITCRASQAFDNYVAWYQQRPGKAPKLLISAASALHAGVPSRFSGSGSGTHFTLTISSLQPEDVATYYCQNYNSAPLTFGGGTKVEIK
For B2, the “fold improvement in Kd vs wildtype” value [3] was 3 fold and the Kd [4] was 0.06 nM.

B3: mAb114 WT Fab (Fab, V domains shown)
VH: EVQLVESGGGLIQPGGSLRLSCAASGFALRMYDMHWVRQTIDKRLEWVSAVGPSGDTYYADSVKGRFAVSRENAKNSLSLQMNSLTAGDTAIYYCVRSDRGVAGLFDSWGQGILVTVSS
VL: DIQMTQSPSSLSASVGDRITITCRASQAFDNYVAWYQQRPGKVPKLLISAASALHAGVPSRFSGSGSGTHFTLTISSLQPEDVATYYCQNYNSAPLTFGGGTKVEIK
B3 showed a Kd [5] of 0.17 nM.

B4: mAb114 UCA WT IgG (antibody, V domains shown)
VH: EVQLVESGGGLVQPGGSLRLSCAASGFTFSSYDMHWVRQATGKGLEWVSAIGTAGDTYYPGSVKGRFTISRENAKNSLYLQMNSLRAGDTAVYYCVRSDRGVAGLFDSWGQGTLVTVSS
VL: DIQMTQSPSSLSASVGDRVTITCRASQGISNYLAWYQQKPGKVPKLLIYAASTLQSGVPSRFSGSGSGTDFTLTISSLQPEDVATYYCQKYNSAPLTFGGGTKVEIK
Binder B4 has a Kd [6] of 400 nM.

B5: mAb114 UCA WT Fab (Fab, V domains shown)
VH: EVQLVESGGGLVQPGGSLRLSCAASGFTFSSYDMHWVRQATGKGLEWVSAIGTAGDTYYPGSVKGRFTISRENAKNSLYLQMNSLRAGDTAVYYCVRSDRGVAGLFDSWGQGTLVTVSS
VL: DIQMTQSPSSLSASVGDRVTITCRASQGISNYLAWYQQKPGKVPKLLIYAASTLQSGVPSRFSGSGSGTDFTLTISSLQPEDVATYYCQKYNSAPLTFGGGTKVEIK
B5 showed a Kd [7] of 75000 nM.
